# Results from patent US20170002068A1 (YEDA RESEARCH AND DEVELOPMENT, published 2017).
# T1: murine amphiregulin (mouse, UniProt P31955 94-191, limits assumed)
# T1 construct: also called mAREG; murine AREG
# T1 sequence (looked up): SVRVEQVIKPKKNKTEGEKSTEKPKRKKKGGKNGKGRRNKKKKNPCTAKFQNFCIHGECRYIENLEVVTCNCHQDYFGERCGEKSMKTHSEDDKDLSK
# T2: human neuregulin 1 (human, UniProt Q02297-6 177-241, limits assumed)
# T2 construct: also called hNRG1; NRG1
# T2 sequence (looked up): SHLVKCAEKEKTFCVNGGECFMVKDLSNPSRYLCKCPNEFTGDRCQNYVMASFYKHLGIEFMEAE
# T3: human betacellulin (human, UniProt P35070 32-111)
# T3 construct: also called hBTC; BTC
# T3 sequence (looked up): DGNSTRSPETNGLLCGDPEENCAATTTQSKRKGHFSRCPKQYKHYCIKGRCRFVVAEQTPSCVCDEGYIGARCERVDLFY
# T4: murine heparin-binding EGF-like growth factor (mouse, UniProt Q06186 63-148, limits assumed)
# T4 construct: also called mHB-EGF
# T4 sequence (looked up): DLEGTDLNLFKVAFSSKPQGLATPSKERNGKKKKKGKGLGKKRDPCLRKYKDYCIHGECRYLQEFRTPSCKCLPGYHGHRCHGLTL
# B1: human amphiregulin (ligand, UniProt P15514 101-198, looked up)
# chain: SVRVEQVVKPPQNKTESENTSDKPKRKKKGGKNGKNRRNRKKKNPCNAEFQNFCIHGECKYIEHLEAVTCKCQQEYFGERCGEKSMKTHSMIDSSLSK
# notes: also called AREG; hAREG
# B2: AR558, anti-AREG monoclonal antibody (antibody, V domains shown)
# VH: EVQLQQSGAELVKPGASVKLSCTASGFNIKDTYMHWVKQRPEQGLEWIGRIDPANRSTKYDPKFQGKATITADTSSNTADLHLSSLTSEDTAVYYCARLYGDSVWYFDVWGAGTTVTVSS
# VL: QIVLTQSPAILSASPGEKVTMTCRAGSSVNYIHWYQQKPGSSPKPWIYATSNLASGVPARFSGSGSGTSYSLTISRVEAEDAATYYCQQWSGYPPMLTFGAGTKLELKR
# notes: Mouse hybridoma mAb generated in AREG knockout mice; they may cover only the variable regions; also called mAb AR558
# B3: AR30, anti-AREG monoclonal antibody (antibody, V domains shown)
# VH: EVQLQQSGAELVRSGASVKLSCTASGFNIKDSYMHWVKQRPEQGLEWIGWVDPDNGDTEYAPEFQGRATLTADTFSSTAYLQLTSLTSEDTAVYYCNAPSTYGHYGFAYWGQGTLVTVSA
# VL: DIVMTQAAPSVPVTPGESVSISCRSSKSLLHSNGKAYLYWFLQRPGQSPQLLIYRMSNLASGVPDRFSGSGSGTAFTLRISRVEAEDVGVYYCMQHLEYPLTFGAGTKLELKR
# notes: Mouse hybridoma mAb raised against TRX-fused EGF-like domain of human AREG; they may cover only the variable regions; also called mAb AR30; AR30 mAb
# Columns and labels:
# [1] = target: T5, Epidermal Growth Factor Receptor (human, UniProt P00533 25-1210); assay: displacement of 125I-EGF (50 ng/mL) from MCAS ovarian cancer cells by unlabeled ligand, 3 h on ice, cell-associated radioactivity
# T5 construct: whole, on cells; also called EGFR; ERBB1
# Experimental: (§1) The cells were later washed and lysed, and the associated radioactivity was determined. […] The cells were later washed and lysed in 1 N NaOH. Cell-associated radioactivity was determined. […] Washed immunocomplexes, along with whole extracts, were immunoblotted with the indicated antibodies.
# [2] = target: T5, Epidermal Growth Factor Receptor; assay: cell-based or functional assay
# [3] = target: T5, Epidermal Growth Factor Receptor; assay: displacement of 125I-EGF (50 ng/mL) by unlabeled ligand on MCAS ovarian cancer cells, on ice
# Experimental: as §1
# human amphiregulin [4] = target: B1; assay: ELISA, wells coated with human AREG at 0, 10, 50, 100, 500 ng/mL, antibody 2 h, anti-mouse-HRP, ABTS, absorbance 415 nm
# Experimental: Thereafter, wells were incubated for two hours with an anti-mouse antibody conjugated to HRP, followed by a 30 minute incubation with ATBS. Signals were determined using an ELISA reader (set at 415 nm).
# [5] = target: T6, human heparin-binding EGF-like growth factor (human, UniProt Q99075 63-148); assay: ELISA, wells coated with 400 ng/mL ligand, mAb 2 h, anti-mouse-HRP, ABTS, 415 nm (legend; the y axis has no title)
# T6 construct: also called hHB-EGF; HB-EGF
# Experimental: (§2) Thereafter, wells were incubated for two hours with an anti-mouse antibody conjugated to HRP, followed by a 30 minute incubation with ATBS. Signals were determined using an ELISA reader (set at 415 nm). […] Thereafter, wells were incubated for two hours with an anti-mouse antibody conjugated to HRP, followed by a 30-min incubation with ATBS. Signals were determined using an ELISA reader (set at 415 nm). […] Thereafter, wells were incubated for two hours with an anti-mouse antibody conjugated to HRP, followed by a 20-min incubation with ATBS. Signals were determined using an ELISA reader (set at 420 nm).
# murine amphiregulin [6] = target: T1, murine amphiregulin; assay: as above
# Experimental: as §2
# [7] = target: T7, human epidermal growth factor (human, UniProt P01133 971-1023); assay: ELISA, wells coated with ligand at 400, 200, 100, 50, 25 and 10 ng/mL, mAb 1 µg/mL 2 h, anti-mouse-HRP, ABTS; absorbance 415 nm on the sheet
# T7 construct: also called hEGF; EGF
# Experimental: as §2
# human neuregulin 1 = target: T2, human neuregulin 1; assay: SPR (BIAcore 3000), ligand in solution over AR30-coated surface
# Experimental: (§3) SPR was performed on a BIAcore 3000 instrument (BIAcore, Uppsala, Sweden). Proteins were diluted in 100 mM Na-acetate (pH 4.6) to 20 μg/ml and immobilized on a CM5 sensor chip using a standard protocol of amine coupling. The protein solution was flown over the chip for 5 minutes at a rate of 20 μl/min. […] The net signal was obtained by subtracting the blank signal (plain dextran matrix) from the signal recorded from the immobilized surface. The association phase for analyte binding to all ligands was followed for 4 minutes, and dissociation phases were monitored for 3 minutes. Surface regeneration between consecutive binding cycles included a 1 min injection of 2 mM NaOH. The response was monitored as a function of time (sensorgram). Multi-concentration data underwent fitting using the software BIAevaluation 3.2.
# [8] = target: T6, human heparin-binding EGF-like growth …; assay: as above
# Experimental: as §3
# murine amphiregulin [9] = target: T1, murine amphiregulin; assay: as above
# Experimental: as §3
# human epigen = target: T8, human epigen (human, UniProt Q6UW88 24-104, limits assumed); assay: as above
# T8 construct: also called hEPG; EPG
# Experimental: as §3
# human betacellulin = target: T3, human betacellulin; assay: as above
# Experimental: as §3
# [10] = target: T7, human epidermal growth factor; assay: as above
# Experimental: as §3
# [11] = target: T9, human transforming growth factor alpha (human, UniProt P01135 40-89); assay: as above
# T9 construct: also called hTGF-alpha; TGF-alpha
# Experimental: as §3
# [12] = target: T4, murine heparin-binding EGF-like growth …; assay: as above
# Experimental: as §3
# human amphiregulin [13] = target: B1; assay: as above
# Experimental: as §3
# T6 sequence (Q99075 63-148 limits assumed): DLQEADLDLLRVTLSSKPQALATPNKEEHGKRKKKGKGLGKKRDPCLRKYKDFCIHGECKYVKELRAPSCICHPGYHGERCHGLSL
# T7 sequence (P01133 971-1023 limits assumed): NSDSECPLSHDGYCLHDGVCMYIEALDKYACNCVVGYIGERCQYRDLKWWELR
# T8 sequence (Q6UW88 24-104 limits assumed): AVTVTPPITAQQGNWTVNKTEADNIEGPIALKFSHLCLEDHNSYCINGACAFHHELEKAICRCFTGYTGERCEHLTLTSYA
binder,measurement,setting,value
B1,IC50 (read off the curve),[1],~0.1 µg/mL
same,"endocytosis-mediated downregulation of EGFR (MCAS cells, 125I-EGF binding after stimulation)",[2],~30%
same,fold lower binding affinity compared to EGF,[3],~100 fold
B2,binding result,human amphiregulin [4],binds
same,binding result,[5],no binding (tested: 400 ng/mL coated ligand)
same,binding result,murine amphiregulin [6],no binding (tested: 400 ng/mL coated ligand)
same,binding result,[7],"no binding (tested: 400 ng/mL coated ligand, mAb 1 µg/mL)"
B3,Kd,human neuregulin 1,> 10 µM
same,Kd,[8],0.08 µM
same,Kd,murine amphiregulin [9],> 10 µM
same,Kd,human epigen,> 10 µM
same,Kd,human betacellulin,> 10 µM
same,Kd,[10],> 10 µM
same,Kd,[11],> 10 µM
same,Kd,[12],6.65 µM
same,Kd,human amphiregulin [13],0.0017 µM
